Measured values from patent publication US20250355001A1 (GTINVENT, published 2025).
Read-outs that look alike come from different tables or passages of the source.

Tests used:
tau fragment 1-49 = target: T1, tau fragment 1-49 (human); experiment: direct ELISA
T1 construct: also called Tau 1-49
T1 peptide: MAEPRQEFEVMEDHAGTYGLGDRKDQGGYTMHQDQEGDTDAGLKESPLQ
Experimental: (§1) A series of binding ELISA was performed using various truncated versions of the tau protein and 13mer peptide libraries spanning the entire hT40 molecule for mapping the epitopes of anti-tau scAbs (Full list of protein antigens used is given in Table 14). In general, ELISA plates were coated with 1 μg/ml hT40 or dGA or dGAE or other truncated versions of the protein and in the case of biotinylated peptides, plates were coated with 5 μg/ml Streptavidin followed by 1 μg/ml biotinylated peptide. The plates were blocked with 2% MPBS and scAb samples added at desired starting concentrations and double diluted across the plate. Binding was detected using anti-Human C Kappa HRP conjugated secondary antibody and the resulting immunoreaction was developed and absorbance values measured as described above.

[1] = target: T2, full length human tau protein 2N4R (hT40) (human, UniProt P10636 1-758); experiment: SPR, scAb captured, tau analyte
T2 construct: recombinant; also called T441
Experimental: The capture antibody was diluted 1/100 in 10 mM Sodium acetate buffer pH 5.0 and passed over the activated chip surface for a period of at least 420 s. Final ligand immobilisation levels over 12,000 RU were deemed to be satisfactory.
The scAb to be tested was added only to flow cell 2 so that flow cell 1 could act as a control to subtract any interaction with the analyte and the chip surface. […] The multi-cycle protocol was as follows-Three start-up cycles composed of an initial capture, to the desired level, of the scAb to be tested was performed followed by a 30 s injection of glycine buffer pH 2.0 after each cycle to regenerate the chip surface. […] The target was added for a 120 s association period and 420 s dissociation period followed by another regeneration, 30 s injection of glycine buffer pH 2.0 in between each cycle.
The single cycle kinetics protocol was similar and utilised the same level of scAb capture. […] In single cycle kinetics the regeneration step was performed only after the final analyte concentration was added. Binding responses were analysed in Biacore X100 evaluation software and data fitted to a 1:1 binding model to obtain kinetic and affinity characterisation.
Target sequence in this assay (P10636 other isoform, or with tags, fused parts or gaps limits assumed): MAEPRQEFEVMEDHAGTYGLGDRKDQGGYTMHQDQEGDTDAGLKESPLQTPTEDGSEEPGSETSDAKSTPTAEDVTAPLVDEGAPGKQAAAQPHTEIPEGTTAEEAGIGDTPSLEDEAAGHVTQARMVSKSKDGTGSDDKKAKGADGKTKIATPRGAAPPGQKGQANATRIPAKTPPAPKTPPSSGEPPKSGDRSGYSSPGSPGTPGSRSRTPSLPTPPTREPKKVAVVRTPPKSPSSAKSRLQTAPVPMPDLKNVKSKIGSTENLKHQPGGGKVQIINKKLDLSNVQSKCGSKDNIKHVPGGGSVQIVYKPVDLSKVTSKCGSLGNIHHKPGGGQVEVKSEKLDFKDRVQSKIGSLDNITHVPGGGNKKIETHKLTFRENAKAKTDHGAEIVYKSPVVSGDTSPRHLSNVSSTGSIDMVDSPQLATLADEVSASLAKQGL

[2] = target: T2, full length human tau protein 2N4R …; experiment: hT40 ELISA
Experimental: as §1

[3] = target: T2, full length human tau protein 2N4R …; experiment: hT40 ELISA; remark: listed apart in the source
Target sequence in this assay (P10636 other isoform, or with tags, fused parts or gaps limits assumed): as above

[4] = target: T3, biotinylated tau peptide 412-441 (N-terminal biotin); experiment: ELISA on biotinylated 412-441 peptide
T3 peptide: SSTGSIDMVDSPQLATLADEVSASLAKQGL
Experimental: as §1

B1: 3bG4 scAb (scFv, not shown: small tags and cut ends)
scFv: QVQLQESGPSLVKPSQTLSLTCTISGFSLISNGVGWVRQAPGKVPEWVGDIASSGKAYSNPALKSRLSITRDTSKSQVSLSLRSVTTEDTAVYYCVRCRDGGVTYGYDIDYWGPGLLVTVSSEGKSSGASGESKVDDQAVLTQPSSVSKSLGQSVSITCSGSTSNVGSGNDVSWFQQVPGSAPKLLFYGATNRASGVPDRFSGSRSGNTATLTITSLQAEDEADYYCGSYDSNSGGIFGSGTRLTVLG
notes: scAb
- binding result (tau fragment 1-49): binds
- Kd [1]: 8.9 nM
- koff [1]: 0.0597 s⁻¹
- kon [1]: 6.67e+06 M⁻¹ s⁻¹

B2: 412E6 (scFv)
scAb: QVQLQESGPSLVKPSETLSLTCTVSGFSLTNYGVGWVRQAPGKALEWLGNIYSGGSTYYNPALKSRLSITRDTSKSQVSLSLNSVTLEDTAVYYCGRGGVGSVDVWGPGLLVTVSSEGKSSGASGESKVDDQAVLTQPPSVSGSPGQRVSITCSGGRNNIGRGTFVDWYQQLPGSGLKTVIYGTDRRPPGVPDRFSGSKTGNAATLTITSLQAEDEADYWCATYDYSNDMIILGSGTRLTVLG
- EC50 (read off the curve) [2]: ~6 mg/L
- EC50 (read off the curve) [3]: ~6 mg/L
- EC50 (read off the curve) [4]: ~2 mg/L

B3: 412B9 (scFv)
scAb: QVQLQESGPSLVKPSQTLSLTCTVSGFSVISDSVAWVRQAPGKVPEWLGASGSSGNKYYNPALKSRLSITRDTSKSQVSLSLSSVTTEDTAVYYCARGIIAGVDVWGRGLLVSVSSEGKSSGASGESKVDDQAVLTQPSSVSGALGQRVSITCSGSSSNVGYGDYVGWYQQVPGSAPKLLIYGAASRASGVPDRFSGSRSGNTATLTISSLQAEDEADYYCASYDSSDGGVFGSGTRLTVLG
- EC50 (read off the curve) [4]: ~2 mg/L

B4: 3aD3 scAb (scFv, not shown: small tags and cut ends)
scFv: QVQLQESGPSLVKPSQTLSLTCTVSGFSLTSNGVGWVRRAPGKVPEWVGDISSGGKVYGHPALKSRLSITRDTSKSQVSLSVSSVTSEDTAVYYCVRCRDGGVSYGYDSDYWGPGLLVTVSSEGKSSGASGESKVDDQAVVTQPSSVSKSLGQSVSITCSGSSSNVGYGDYVGWFQQVPGSAPKLLIYGVTERASGVPDRFSGSRSGNTATLTISSIQAEDEADYYCASYDDSSGGIFGSGTRLTVLG
notes: scAb
- binding result (tau fragment 1-49): binds
- Kd [1]: 19.1 nM
- koff [1]: 0.0104 s⁻¹
- kon [1]: 544000 M⁻¹ s⁻¹

B5: 3aH6 scAb (scFv, not shown: small tags and cut ends)
scFv: QVQLQESGPSLVKPSQTLSLTCTVSGFSLSSNGVGWVRQAPGKVPEWLGDISSVGKKYANPALKSRLSFTRDTSKSQVSLSLSSVTTEDTAVYYCVKCRDGGVTYGYDIDYWGPGLLVTASSEGKSSGASGESKVDDQAVVTQPSSVSGSLGQSVSITCSGSSGNVGYGDYVSWFQQFHGSAPKLLIYGATNLASGVPARFSGSRSGNTATLTISSLHAEDEADYYCASYDSSSGGVFGSGTRLTVLG
notes: scAb
- binding result (tau fragment 1-49): binds
- Kd [1]: 3.6 nM
- koff [1]: 0.00987 s⁻¹
- kon [1]: 2.76e+06 M⁻¹ s⁻¹
